Results: US12617830B2, “Analogues of PYY” (IP2IPO Innovations Limited, priority 2017, dated 2026)
Ends that are not written are not given here.

Columns and labels:
[1] = test system: overnight fasted male Wistar rats; experiment: Rat feeding experiment, single subcutaneous injection, food intake and body weight monitored for 6 days; type: in vivo; settings: single subcutaneous injection of peptide in saline vs control saline; monitored for following 6 days; FIGS. 3A-3D, 4A-4D
Description: Animals were randomised into treatment groups, with stratification by body weight.

[2] = target: T1, human Neuropeptide Y Receptor Y2 (Homo sapiens, UniProt P49146); experiment: In vitro receptor potency: inhibition of forskolin-stimulated cAMP in hY2 CHO-K1 cells; type: cell-based; settings: for Average ratio to PYY2-36 ± SEM: ratio of example compound EC50 to PYY2-36 EC50, cAMP, hY2 CHO-K1 cells (DiscoverX), 0.02 mM forskolin, 30 minutes
T1 construct: host or cells: CHO-K1
T1 sequence (P49146 1-381): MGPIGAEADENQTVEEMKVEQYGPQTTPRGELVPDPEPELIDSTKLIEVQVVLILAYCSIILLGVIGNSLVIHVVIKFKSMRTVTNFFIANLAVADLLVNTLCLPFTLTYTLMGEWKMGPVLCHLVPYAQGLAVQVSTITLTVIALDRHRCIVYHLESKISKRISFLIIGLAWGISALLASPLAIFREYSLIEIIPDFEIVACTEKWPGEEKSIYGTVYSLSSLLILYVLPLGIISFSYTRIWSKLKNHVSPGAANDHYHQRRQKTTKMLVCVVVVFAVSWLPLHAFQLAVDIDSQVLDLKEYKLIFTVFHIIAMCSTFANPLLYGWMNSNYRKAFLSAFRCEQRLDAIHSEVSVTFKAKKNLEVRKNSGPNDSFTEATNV
Method: (§1) DiscoverX® hY2 CHO-K1 cells (10,000 cells per well (96 well plate)) were resuspended in media containing 0.2 mM IBMX and 0.02 mM forskolin (which stimulates cAMP production) and test peptides at a range of concentrations, for 30 minutes. The reaction stopped by lysing the cells and cAMP quantified 60 minutes later using Cisbio cAMP dynamic 2 kit.
as §1, with “Ten thousand” for “DiscoverX® hY2 CHO-K1 cells (10,000”, “plate)” for “plate))”

## Pro-Ile-Lys-Pro-Glu-Ala-Pro-Gly-Glu-Gly-Ala-Ser-Pro-Glu-Glu-Leu-Leu-His-Tyr-Tyr-Ala-Ala-Leu-Arg-His-Phe-Leu-Asn-His-Val-Thr-Arg-Gln-Arg-Tyr-NH2 (PIKPEAPGEGASPEELLHYYAALRHFLNHVTRQRY-NH2) [Peptide Y1419]
[1]
  reductions in food intake and body weight: a single initial dose is still active at 160 hours after administration
[2]; hY2 CHO-K1 cells, compared with previous generation compound Y242, FIG. 2
  ability to inhibit forskolin production (potency compared with Y242): much more potent inhibitor than the previous generation of preferred compounds
[2]
  Average ratio to PYY2-36 ± SEM: 0.8 ± 0.16

## Y1421: example PYY analogue peptide; sequence given in FIGS. 1A-1D (PIKPEAPGQGASPEELLHYYAALRHFLNHVTRQRY-NH2) [Peptide Y1421]
[2]
  Average ratio to PYY2-36 ± SEM: 0.9 ± 0.09

## Y1518: example PYY analogue peptide; sequence given in FIGS. 1A-1D (PIKPEAPGEGASPEELLHYYAALRHFLNHLTRQRY-NH2) [Peptide Y1518]
[2]
  Average ratio to PYY2-36 ± SEM: 1.7 ± 0.13
